Laboratory results published in the supplement of paper PMC12042874.
± gives the uncertainty stated by the source.

Experiment: amyloid nucleation score (Sup35N fusion, yeast selection) (log enrichment); library NNK3; higher = more nucleation; inactive = no reads after selection
Procedure, shortened: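 Three technical output replicates were used for random libraries. Psi-negative yeast expressing peptides of 20 random codons fused to Sup35N were induced with 100 μM copper sulfate for 24 hours and grown 7 days at 30°C on medium lacking adenine and uracil, and input and output plasmid inserts were Illumina-sequenced, excluding sequences with under 100 input reads. The nucleation score is the DiMSum log enrichment of output over input reads, centred on the mode score of non-aggregating sequences.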

**Q.** With VTAELNFITVNGYVE as the substance, how does the amyloid nucleation score read?
**A.** inactive

**Q.** Which amyloid nucleation score does the source give for YSYHS here?
**A.** inactive

**Q.** For LFVYVIQYVISVI, which amyloid nucleation score is on record?
**A.** 0.74 ± 0.14

**Q.** Which amyloid nucleation score does the source give for LDFVYCNAVFWTLNGFLNCA here?
**A.** 1.78 ± 0.078

**Q.** Which amyloid nucleation score does the source give for CVVDNRRCLFLYWSLVSFNW here?
**A.** 1.18 ± 0.13

**Q.** Which amyloid nucleation score does the source give for GYVPHVFFRILRLVRENMLE here?
**A.** inactive

**Q.** For IQLIILMASTGSLYLPSDWT, which amyloid nucleation score is on record?
**A.** 0.349 ± 0.18

**Q.** Which amyloid nucleation score does the source give for LGICGVRRSLMKRR here?
**A.** inactive

**Q.** With FHVVFCDID as the substance, how does the amyloid nucleation score read?
**A.** inactive

**Q.** Which amyloid nucleation score does the source give for GTTSFVLVCVCWSG here?
**A.** -0.409 ± 0.95

**Q.** With MICAGVMIGYALFYFQIWSC as the substance, how does the amyloid nucleation score read?
**A.** inactive

**Q.** For YRLLEQLTLSCWANRVLRLG, which amyloid nucleation score is on record?
**A.** -0.077 ± 0.61

**Q.** Which amyloid nucleation score does the source give for SNSMPSGNSRMVCCRDPSFP here?
**A.** inactive

**Q.** For FGAVVDYNFSN, which amyloid nucleation score is on record?
**A.** -0.695 ± 0.96

**Q.** Which amyloid nucleation score does the source give for IYYPHTFIWDFVDEGVAPHY here?
**A.** 1.56 ± 0.12

**Q.** With CSYILVFSNSFFFHAHSTWV as the substance, how does the amyloid nucleation score read?
**A.** inactive

**Q.** Which amyloid nucleation score does the source give for SWIRRRPAVRLDRRMPRLAF here?
**A.** inactive

**Q.** With IPSWREWVYGVINWRAGSSP as the substance, how does the amyloid nucleation score read?
**A.** inactive

**Q.** For QYNPLDCCNVRLKLYGPLMV, which amyloid nucleation score is on record?
**A.** inactive

**Q.** With TYSGRIKLFLCWMLILSNGT as the substance, how does the amyloid nucleation score read?
**A.** inactive

**Q.** For WNPYAIARKAIVRGSVKWGV, which amyloid nucleation score is on record?
**A.** inactive

**Q.** Which amyloid nucleation score does the source give for VILATAYLASNLYPVCSLIS here?
**A.** inactive

**Q.** With RKVIPCH as the substance, how does the amyloid nucleation score read?
**A.** inactive

**Q.** With HSCCDEWRDNGEIGNSSNRE as the substance, how does the amyloid nucleation score read?
**A.** inactive

**Q.** For RLGNTGMCV, which amyloid nucleation score is on record?
**A.** inactive

**Q.** For SRMLVSKLWKNMGLVSSAYL, which amyloid nucleation score is on record?
**A.** inactive

**Q.** With ITFVRGWVFDLQFNATE as the substance, how does the amyloid nucleation score read?
**A.** 0.55 ± 0.37

**Q.** For FLYFTHARFHR, which amyloid nucleation score is on record?
**A.** 1.79 ± 0.094

**Q.** Which amyloid nucleation score does the source give for GSKCWPDLQMLIFEVVHHRA here?
**A.** inactive

**Q.** For SKPYYYMVYIESEVVVYLFG, which amyloid nucleation score is on record?
**A.** inactive

**Q.** For DCKINIGVVVSLGACLSWSE, which amyloid nucleation score is on record?
**A.** 1.65 ± 0.084

**Q.** Which amyloid nucleation score does the source give for RYLFRFYSRDVVSMMQ here?
**A.** inactive

**Q.** With RSSDVRQYTLMCNWSKHVVL as the substance, how does the amyloid nucleation score read?
**A.** 0.089 ± 0.54

**Q.** With GNISIWGFRNSWALDLIAGY as the substance, how does the amyloid nucleation score read?
**A.** inactive

**Q.** Which amyloid nucleation score does the source give for LARGDYVMKDMVLAHINDLC here?
**A.** inactive

**Q.** With YVVFYHLAVALSLKMASKRI as the substance, how does the amyloid nucleation score read?
**A.** -0.826 ± 1.9

**Q.** Which amyloid nucleation score does the source give for NTLWYIWGG here?
**A.** inactive

**Q.** With MFIMVRRRLT as the substance, how does the amyloid nucleation score read?
**A.** inactive

**Q.** Which amyloid nucleation score does the source give for SFKAWIWSSMIAVGLTQRYS here?
**A.** inactive

**Q.** For MCVRPLPSRLGTVGLWN, which amyloid nucleation score is on record?
**A.** inactive

**Q.** For RYSRWLGT, which amyloid nucleation score is on record?
**A.** inactive

**Q.** For TYVARIVN, which amyloid nucleation score is on record?
**A.** inactive

**Q.** For GLSNRTFSMISSLVRDTKRS, which amyloid nucleation score is on record?
**A.** inactive

**Q.** For VCKMSNMFNSFCYYASQFCY, which amyloid nucleation score is on record?
**A.** inactive

**Q.** With GSRSARMGVVRRGRRCSECY as the substance, how does the amyloid nucleation score read?
**A.** inactive

**Q.** With YEAFADRTPLVFAHSWSMLK as the substance, how does the amyloid nucleation score read?
**A.** inactive

**Q.** For WNFWNNFKSLEWEVLARYFF, which amyloid nucleation score is on record?
**A.** inactive

**Q.** For VEDKCVWFV, which amyloid nucleation score is on record?
**A.** inactive

**Q.** For GMGCTMLNYLMLWESFDTRP, which amyloid nucleation score is on record?
**A.** 0.586 ± 0.17

**Q.** With FQRVGRFPSYSTCAGRVATG as the substance, how does the amyloid nucleation score read?
**A.** inactive

**Q.** Which amyloid nucleation score does the source give for HARFTDQKTTPIWCTSVFKK here?
**A.** inactive

**Q.** With DEAMEDFEWRRMGLV as the substance, how does the amyloid nucleation score read?
**A.** inactive

**Q.** Which amyloid nucleation score does the source give for FLQSGN here?
**A.** inactive

**Q.** Which amyloid nucleation score does the source give for AVEEHLIHLSCCVQAVNRRV here?
**A.** 2.36 ± 0.074

**Q.** For FYTMELISVQRI, which amyloid nucleation score is on record?
**A.** inactive

**Q.** With YMFVLGYRMNCW as the substance, how does the amyloid nucleation score read?
**A.** 1.01 ± 0.17

**Q.** Which amyloid nucleation score does the source give for WFMREAWIWSAPFWPWIRNT here?
**A.** inactive

**Q.** Which amyloid nucleation score does the source give for VPLPEGFHNRTSNCIFFINE here?
**A.** 0.932 ± 0.12

**Q.** For AMFTRSRVSITLCGRWAYCS, which amyloid nucleation score is on record?
**A.** inactive

**Q.** Which amyloid nucleation score does the source give for NYVPQSGYNVDNVLNILTKL here?
**A.** inactive

**Q.** For WVHCSPGDRSFTLGTPSFHK, which amyloid nucleation score is on record?
**A.** inactive

**Q.** With NRTWIGIIHLFGLYYGVCGG as the substance, how does the amyloid nucleation score read?
**A.** 0.621 ± 0.2

**Q.** Which amyloid nucleation score does the source give for LVHLEVGQGSSVVEHLRCVL here?
**A.** inactive

**Q.** For SLGSVVTSFASEMWTADGTR, which amyloid nucleation score is on record?
**A.** inactive

**Q.** For TLVFHISFGDLVHEILNCAV, which amyloid nucleation score is on record?
**A.** 2.17 ± 0.088
